Source: patent publication US7629132B2, “Goodpasture antigen binding protein” (priority 1999, dated 2009)

How the values were obtained:
rGPBP = biological target: T1, rGPBP (Homo sapiens, UniProt Q9Y5P4); assay: In vitro phosphorylation of GP antigen-derived peptides by rGPBP; assay type: biochemical; conditions: about 200 ng yeast rGPBP, 10 nmoles peptide, γ-32P-ATP
T1 construct: made in house; host or cells: Pichia pastoris GS115
T1 sequence (Q9Y5P4 1-624): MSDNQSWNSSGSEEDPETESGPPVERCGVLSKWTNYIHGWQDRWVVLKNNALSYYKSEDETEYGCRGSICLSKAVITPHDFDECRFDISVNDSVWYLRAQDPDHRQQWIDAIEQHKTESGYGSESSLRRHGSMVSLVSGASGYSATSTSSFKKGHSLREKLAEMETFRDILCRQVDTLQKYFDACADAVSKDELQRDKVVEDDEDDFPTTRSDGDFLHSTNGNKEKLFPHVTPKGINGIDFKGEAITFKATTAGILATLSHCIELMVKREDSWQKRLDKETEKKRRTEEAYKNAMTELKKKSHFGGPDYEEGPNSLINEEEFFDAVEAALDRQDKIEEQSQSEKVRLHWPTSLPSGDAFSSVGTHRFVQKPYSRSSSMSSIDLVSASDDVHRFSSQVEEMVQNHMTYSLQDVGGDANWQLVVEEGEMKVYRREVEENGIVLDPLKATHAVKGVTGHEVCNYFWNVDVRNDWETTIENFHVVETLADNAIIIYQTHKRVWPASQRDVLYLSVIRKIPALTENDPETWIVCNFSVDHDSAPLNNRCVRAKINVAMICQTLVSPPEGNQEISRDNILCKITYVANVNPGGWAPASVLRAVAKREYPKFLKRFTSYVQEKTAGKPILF
Experimental: FIG. 5. Recombinant GPBP contains a serine/threonine kinase that specifically phosphorylates the N-terminal region of the human GP antigen. To assess phosphorylation, approximately 200 ng of yeast rGPBP was incubated with [γ]^32P-ATP in the absence (A and B) or presence of GP antigen-derived material (C). In (A), the mixture was subjected to reducing SDS-PAGE (10% gel) and autoradiographed. In (B), the mixture was subjected to ^32P-phosphoamino acid analysis by two-dimensional thin-layer chromatography. The dotted circles indicate the position of ninhydrin stained phosphoamino acids. In (C), the phosphorylation mixtures of the indicated GP-derived material were analyzed by SDS-PAGE (15% gel) and autoradiography (GPpep1 and GPpep1Ala^9) or immunoprecipitated with Mab 17, a monoclonal antibody that specifically recognize GP antigen from human and bovine origin, and analyzed by SDS-PAGE (12.5%) and autoradiography (rGP, GP). The relative positions of rGPBP (A), rGP antigen and the native human and bovine GP antigens (C) are indicated by arrows. The numbers and bars refer to molecular weight markers as in previous Figures. […]

PKA = PKA (Homo sapiens, UniProt P17612); assay: PKA phosphorylation of native GP antigen (α3(IV)NC1 domain or hexamer) in the presence of C-terminal peptides; assay type: biochemical; conditions: 0.1 μM ATP, 10 nmol peptide, purified α3(IV)NC1 domain or hexamer
Experimental: FIG. 16. Phosphorylation of GP alternative splicing products by PKA. In left panel, equimolecular amounts of rGP (lanes 1), rGPΔV (lanes 2), rGPΔIII (lanes 3) or rGPΔIII/IV/V (lanes 4), equivalent to 500 ng of the GP were phosphorylated at the indicated ATP concentrations. One-fifth of the total phosphorylation reaction mixture was separated by gel electrophoresis and transferred to PVDF, autoradiographed (shown) and the proteins blotted with M3/1, a specific monoclonal antibody recognizing all four species (shown) or using antibodies specific for each individual C-terminal region (not shown). […] Right panel: purified α3(IV)NC1 domain or hexamer was phosphorylated with PKA and 0.1 μM ATP in the absence (lanes 1) or in the presence of 10 nmol of peptides representing the C-terminal region of either GPΔIII (lanes 2) or GPΔIII/IV/V (lanes 3). Where indicated the phosphorylation mixtures of purified α3(IV)NC1 domain were V8 digested and immunoprecipitated with antibodies specific for the N terminus of the human α3(IV)NC1 domain (3). Bars and numbers indicate the position and sizes (kDa) of the molecular weight markers.
(§1) Phosphorylation studies. Phosphorylation studies were essentially done as described above (see also 3 and 12). In some experiments, the substrates were in-blot renatured and then, phosphorylated for 30 min at room temperature by overlaying 100 μl of phosphorylation buffer containing 0.5 μg of rGPBP. Digestion with V8 endopeptidase and immunoprecipitation were performed as described in (3).

GPBP = biological target: T2, GPBP (Homo sapiens, UniProt Q9Y5P4); assay: In vitro GPBP autophosphorylation in the presence of GPΔIII-derived peptide; assay type: biochemical; conditions: about 200 ng rGPBP, 150 μM ATP, 5 nmol peptide
T2 construct: made in house; host or cells: Pichia pastoris GS115
T2 sequence (Q9Y5P4 1-624): T1 sequence (Q9Y5P4 1-624)
Experimental: FIG. 20. Regulation of the GPBP by the C terminal region of GPΔIII. About 200 ng of rGPBP were in vitro phosphorylated with 150 μM ATP in the absence (lane 1) or in the presence of 5 nmol of GPΔIII-derived peptide synthesized either using Boc-(lane 2) or Fmoc-(lane 3) chemistry. The reaction mixtures were subjected to SDS-PAGE, transferred to PVDF and autoradiographed to asses autophosphorylation, and subsequently blotted with anti-FLAG monoclonal antibodies (Sigma) to determine the amount of recombinant material present (Western).
In vitro phosphorylation assays-About 200 ng of rGPBP were incubated overnight at 30° C. in 25 mM β-glycerolphosphate (pH 7.0), 0.5 mM EDTA, 0.5 mM EGTA, 8 mM MgCl2, 5 mM MnCl2, 1 mM DTT and 0.132 μM γ-^32P-ATP, in the presence or absence of 0.5-1 μg of protein substrates or 10 nmoles of synthetic peptides, in a total volume of 50 μl.
as §1

[1] = Loss of PKA-inducing activity of the peptide on storage; assay type: physicochemical; conditions: long storage at low temperatures

Sequence: KGKRGDAGSPATWTTRGFVFT [GPpep1Ala^9, mutant Ser9 to Ala9 of GPpep1, residues 3-23 of the human GP antigen]
- 32P incorporation by rGPBP, compared with GPpep1 (rGPBP): lower ^32P incorporation

Sequence: QRAHGQDLDALFVKVLRSP [GPΔIII derived peptide, synthetic peptide representing the C-terminal region of GPΔIII, chemistry not specified at the place]
- induction of GP antigen phosphorylation by PKA (PKA; listed as SEQ ID NO: 43): induced the phosphorylation of a single polypeptide

Sequence: QRAHGQDLDALFVKVLRSP [Boc-based peptide]
- effect on GPBP autophosphorylation (GPBP; listed as Boc-based synthetic peptides): positively influenced GPBP autophosphorylation
- stability of biological activity (ability to induce PKA) on storage [1]: loses its ability to induce PKA upon long storage at low temperatures

Sequence: QRAHGQDLESLFHQL [GPΔIII/IV/V derived peptide, synthetic peptide representing the C-terminal region of GPΔIII/IV/V]
- induction of GP antigen phosphorylation by PKA (PKA): induced the phosphorylation of a single polypeptide

Sequence: QRAHGQDLDALFVKVLRSP [Fmoc-based peptide]
- effect on GPBP autophosphorylation (GPBP): inhibited GPBP autophosphorylation
- induction of GP antigen phosphorylation by PKA (PKA; listed as Fmoc-based peptides): not
